Measured values reported in patent EP0332424A2 (dated 1991).

Legend:
[1] = molecular target: T1, human carcinoembryonic antigen (human, UniProt P06731 35-685, 125I label (125I-CEA, the tracer in the radioimmunoassay)); test: solid phase radioimmunoassay: culture supernatant, 125I-CEA, Sepharose-bound goat anti-human IgG
T1 construct: Used as a 125I-labelled tracer; also called CEA
T1 sequence (looked up): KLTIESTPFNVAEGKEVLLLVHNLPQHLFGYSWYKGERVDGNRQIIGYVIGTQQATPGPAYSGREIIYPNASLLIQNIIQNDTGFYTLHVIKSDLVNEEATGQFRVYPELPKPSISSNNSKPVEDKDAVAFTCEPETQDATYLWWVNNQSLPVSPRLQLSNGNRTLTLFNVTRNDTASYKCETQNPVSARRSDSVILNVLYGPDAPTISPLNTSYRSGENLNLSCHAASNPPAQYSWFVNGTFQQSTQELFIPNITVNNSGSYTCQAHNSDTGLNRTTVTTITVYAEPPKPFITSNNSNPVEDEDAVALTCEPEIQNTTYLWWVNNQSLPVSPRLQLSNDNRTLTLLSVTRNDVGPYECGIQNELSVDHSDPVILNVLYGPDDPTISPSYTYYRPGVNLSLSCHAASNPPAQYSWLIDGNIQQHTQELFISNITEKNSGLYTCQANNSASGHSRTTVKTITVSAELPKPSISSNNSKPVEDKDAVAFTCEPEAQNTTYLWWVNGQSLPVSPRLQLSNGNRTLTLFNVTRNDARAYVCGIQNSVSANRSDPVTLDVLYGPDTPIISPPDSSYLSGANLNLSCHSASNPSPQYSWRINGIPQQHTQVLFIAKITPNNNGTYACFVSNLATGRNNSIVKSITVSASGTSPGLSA

[2] = molecular target: T1, human carcinoembryonic antigen; test: affinity comparison by radioimmunoassay and Scatchard analysis; Ka not given

B1: chimeric antibody XCEM 449 (antibody, V domains shown)
VH: DVQLVESGGGLVQPGGSRKLSCAASGFTFSNFGMHWIRQAPEKGLEWVAYISGGSSTIYYADTVKGRFTISRDNPRNTLFLQMTSLRSEDTAMFYCARDYYANNYWYFDVWGAGTTVTVSS
VL: DIVMTQSQKFMSTSVGDRVSITCKASQNVRTAVAWYQQKPGQSPKALIYLASNRYTGVPDRFTGSGSGTDFTLTITNVQSEDLADYFCLQHWNYPLTFGAGTKLELKR
notes: the one-letter code is converted from the printed three-letter code; also called CEM-chimeric antibody; chimeric CEM antibody
B1: binds [1].

B2: murine monoclonal antibody of hybridoma CEM 231.6.7 (antibody, V domains shown)
VH: B1 VH
VL: B1 VL
notes: also called murine antibody counterparts; ATCC HB9620
B2: binds [2].
